Test [1] addresses T1, cIAP1 (human, UniProt Q13490 1-618).
T1 construct: Also used for general sentences that say only 'cIAP1'; also called endogenous cIAP1
As to the kind of experiment: immunoprecipitation of the transfected protein, probed for co-precipitated endogenous cIAP1 (FIG. 6D bottom panel). How it is done:
Left panel: Binding in vitro. […] Right and bottom panels depict binding in transfected HEK293T cells. […] After 28 h the endogenous cIAP1 was immunoprecipitated. MG132 was applied for the last 6 h of incubation. […] After 28 h the transfected proteins were immunoprecipitated and probed for co-precipitated endogenous cIAP1. MG132 was applied for the last 6 h of incubation. […] N/A, not analyzed. The asterisk denotes assessment in the yeast two-hybrid test. […] The indicated plasmids were co-transfected into HEK293T cells.

Test [2] deals with T2, TRAF2 (Homo sapiens, UniProt Q12933).
T2 construct: made in house; host or cells: HEK293T (FLAG-TRAF2); bacteria, pGEX2T (GST-SIVA2)
T2 sequence (Q12933 1-501): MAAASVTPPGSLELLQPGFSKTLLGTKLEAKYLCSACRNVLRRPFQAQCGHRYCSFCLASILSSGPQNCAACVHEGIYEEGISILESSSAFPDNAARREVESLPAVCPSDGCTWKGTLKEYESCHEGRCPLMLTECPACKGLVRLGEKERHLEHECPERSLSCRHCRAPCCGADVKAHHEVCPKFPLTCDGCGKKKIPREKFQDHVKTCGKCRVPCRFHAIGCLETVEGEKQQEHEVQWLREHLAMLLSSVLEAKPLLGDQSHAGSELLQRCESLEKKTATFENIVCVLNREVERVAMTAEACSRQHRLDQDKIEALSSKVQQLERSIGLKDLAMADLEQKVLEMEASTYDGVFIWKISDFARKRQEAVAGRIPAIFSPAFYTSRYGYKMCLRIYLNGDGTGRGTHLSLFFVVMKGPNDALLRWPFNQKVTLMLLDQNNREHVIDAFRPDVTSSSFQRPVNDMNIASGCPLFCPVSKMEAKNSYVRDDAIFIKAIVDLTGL
As to the kind of experiment: In-vitro protein-binding assay, TRAF2. The conditions noted are these: FLAG-TRAF2 incubated with GST-SIVA2. As to the method:
(§1) (A) Transfected SIVA2 binds to endogenous TRAF2. FLAG-SIVA2 or HIS-SIVA2 (control) was transfected into HEK293T cells. SIVA2 was immunoprecipitated using anti-FLAG M2 beads and the co-precipitated cellular TRAF2 was assayed by western blotting. The total cellular level of TRAF2 is shown at the bottom. (B) SIVA2 binds TRAF2 inducibly. Treatment of the cells EcR293-CD27-SIVA2 with ponasterone for 2 h to induce SIVA2, and treated with CD70 as indicated was followed by immunoprecipitation of TRAF2. […] FLAG-tagged TRAF2 was immunoprecipitated from transfected HEK293T cells with anti-FLAG M2 beads, eluted from the beads using FLAG peptide and incubated with GST-SIVA2 or its mutant, and then subjected to immunoprecipitation and western blotting as indicated. […] Left panel: Binding in vitro. Recombinant cIAP1 was incubated with GST-SIVA2 or its mutant. Right and bottom panels depict binding in transfected HEK293T cells. Right panel: Cells were transfected with HIS-SIVA2, HIS-SIVA2 (1-58), or FLAG-TRAF2. After 28 h the endogenous cIAP1 was immunoprecipitated. MG132 was applied for the last 6 h of incubation. Bottom panel: Cells were transfected with FLAG-SIVA2, FLAG-SIVA2 (1-58) or, as a specificity control, FLAG-GST-BR3-ICD* (in which the BAFF receptor intracellular domain is mutated at its TRAF3-binding region (PVPAT>AVAAA)). […] N/A, not analyzed. […]

Test [3] deals with T3, cIAP1 (Homo sapiens, UniProt Q13490). As to the kind of experiment: In-vitro substrate ubiquitination assay, cIAP1. Particulars: recombinant cIAP1, E2 UbCH5b or Ubc13/Uev1a. The format is biochemical. How it is done:
FIG. 9 SIVA2 mediates ubquitination of both TRAF2 and cIAP1. (A) cIAP-1 is required for SIVA2-mediated TRAF2 ubiquitination in cells. HEK293T cells were transfected with cIAP1 siRNA and, 24 h later, with the other plasmids as indicated. The extent of ubiquitination of the TRAF2 immunoprecipitated from the lysates of these cells, as well as the cellular levels of the endogenous cIAP1 and cIAP2 and the transfected ubiquitin, were determined by western blot analyses. (B) SIVA2, but not SIVA1, enhances K48-linked polyubiquitination of TRAF2 in cells. HEK293T cells grown in 90-mm plates were transfected by the calcium phosphate method with 4 μg of FLAG-TRAF2 (C34A), together with […] of HA-ubiquitin mutant plasmids and 6 μg of HIS-SIVA2 or HIS-SIVA2 (C73A) or HIS-SIVA1. The cells were lysed 24 h after transfection and TRAF2 was precipitated and analyzed as indicated. Wild-type SIVA2 and SIVA1, as well as SIVA2 (C73A) mutant, co-precipitated with TRAF2 (bottom panel). […]
In-vitro ubiquitination. […] Supernatants of the reaction were analyzed for free polyubiquitin chains formed in solution. For assay of self-ubiquitination of SIVA2 the glutathione beads were washed three times with a buffer containing 20 mM HEPES pH 7.6, 250 mM NaCl, 1 mM DTT, 1% Triton X-100 and Complete Protease Inhibitor Cocktail, boiled with LDS sample buffer (Invitrogen), and analyzed by western blotting. […]

Test [4] has as its target T3, cIAP1. Description: In-vitro protein-binding assay, cIAP1. Particulars: recombinant cIAP1 incubated with GST-SIVA2. How it is done: as §1

T3 sequence (Q13490 whole entry, species assumed): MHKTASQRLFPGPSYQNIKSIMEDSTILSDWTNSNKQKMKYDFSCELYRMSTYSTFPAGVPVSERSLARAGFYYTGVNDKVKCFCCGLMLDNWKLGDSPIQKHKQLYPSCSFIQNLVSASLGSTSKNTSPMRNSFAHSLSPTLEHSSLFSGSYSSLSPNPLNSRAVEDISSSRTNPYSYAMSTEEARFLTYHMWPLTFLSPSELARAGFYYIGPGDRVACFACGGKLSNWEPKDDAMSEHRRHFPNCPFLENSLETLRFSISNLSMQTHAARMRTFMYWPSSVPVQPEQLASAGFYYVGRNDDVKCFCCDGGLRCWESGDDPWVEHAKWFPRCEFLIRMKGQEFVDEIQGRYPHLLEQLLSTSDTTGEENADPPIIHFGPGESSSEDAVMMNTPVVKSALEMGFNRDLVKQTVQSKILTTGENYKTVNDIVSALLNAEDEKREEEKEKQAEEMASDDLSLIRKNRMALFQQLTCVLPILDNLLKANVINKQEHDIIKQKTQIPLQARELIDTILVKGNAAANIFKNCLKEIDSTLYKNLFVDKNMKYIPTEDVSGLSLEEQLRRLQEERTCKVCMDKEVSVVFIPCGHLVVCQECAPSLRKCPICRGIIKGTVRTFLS
T1 sequence (Q13490 whole entry): as the sequence (Q13490 whole entry, species assumed) above

B1: FLAG-SIVA2 (1-58) (other, not shown: small tags and cut ends)
chain: MPKRSCPFADVAPLQLKVRVSQRELSRGVCAERYSQEVFDPSGVASIACSSCVRAVDG
notes: also called SIVA N-terminus
Turning to B1, the binding result in test [1] is “binds”.

B2: SIVA2: short splice variant of SIVA, E3 ligase (NM—021709, SEQ ID NO:11); recombinant GST fusion in in-vitro tests (protein)
chain: MPKRSCPFADVAPLQLKVRVSQRELSRGVCAERYSQEVFDPSGVASIACSSCVRAVDGKAVCGQCERALCGQCVRTCWGCGSVACTLCGLVDCSDMYEKVLCTSCAMFET
modifications: left off: a dimerising Fc or GST; large carriers; small tags and cut ends
notes: recombinant GST fusion in in-vitro tests
Regarding B2, the “binding of SIVA2 to TRAF2 in vitro” value in test [2] is on record as “binds TRAF2 in vitro”. In test [3], the “ubiquitination of cIAP1” value was “effectively ubiquitinated”. The “binding of SIVA2 to cIAP1” value in test [4] is reported as “binds at its N-terminus to cIAP1”.

The record behind these values is patent publication US20110293593A1, “SIVA 2 STABILIZATION” (YEDA RESEARCH AND DEVELOPMENT CO., LTD., priority 2008, published 2011).
